The labels stand for the following.
B1: glmS ribozyme (parent)
chain: AUAAAAGCGCCAGAACUACAGAAAUGUAGUUGACGAGGAGGAGGUUUAUCGAAUUUUCGGCGGAUGCCUCCAAA

What all share (settings): with glucosamine-6-phosphate
In data set [1] the parent is B1. Put plainly: kcat; higher = faster cleavage; RNA array. The method in brief: (§1)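 Tiles bearing barcoded ribozyme variants, transcribed in situ by E. coli RNA polymerase on sequenced MiSeq chips, were imaged over ~14 h at 37 °C using a hybridised Cy3 probe. Glucosamine-6-phosphate was supplied at 40 μM to 10 mM in HEPES/KCl/Mg(OAc)2 buffer. kobs came from one- or two-exponential decay fits to normalised per-tile medians, and weighted Michaelis–Menten fits then provided kcat and KM.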

In data set [2] the parent is B1. Put plainly: KM; higher = weaker cofactor use; RNA array. The method in brief:
as §1

Data set [3] covers variants of B1. Put plainly: self-cleavage kobs at 640 uM GlcN6P; higher = faster cleavage; RNA array. The method in brief:
as §1

In data set [4] the parent is B1. Put plainly: self-cleavage kobs at 2500 uM GlcN6P; higher = faster cleavage; RNA array. The method, boiled down:
as §1

Variants of B1 are the subject of data set [5]. Nature of the data set: self-cleavage kobs at 10000 uM GlcN6P; higher = faster cleavage; RNA array. The method in brief: as §1
The variants in data set [6] derive from B1. Nature of the data set: self-cleavage kobs at 160 uM GlcN6P; higher = faster cleavage; RNA array. The method in brief:
as §1

In data set [7] the parent is B1. Put plainly: self-cleavage kobs at 40 uM GlcN6P; higher = faster cleavage; RNA array. The method, boiled down: as §1

± gives the standard error. For some of these results: Variants at the floor of the assay were thinned out.

As usually defined, the kcat is the maximal rate divided by the concentration of active sites. The KM is the substrate concentration at which the rate is half of its maximum. Regarding A12G G41A, the kcat in data set [1] was found to be 0.00048 ± 0.00011 s⁻¹. For the same variant, the KM in data set [2] turned out to be 9920 ± 3500 µM. The “self-cleavage kobs at 640 uM GlcN6P” value in data set [3] came out at 3.72e-05 ± 1.2e-05 s⁻¹. In addition, in data set [4], the “self-cleavage kobs at 2500 uM GlcN6P” value stood at 8.85e-05 ± 1.7e-05 s⁻¹. For the same variant, the “self-cleavage kobs at 10000 uM GlcN6P” value in data set [5] amounted to 0.000246 ± 3.7e-05 s⁻¹.

For U47G A52G, the kcat in data set [1] came out at 0.000681 ± 0.00017 s⁻¹. In data set [2], the KM was found to be 1570 ± 620 µM. The “self-cleavage kobs at 160 uM GlcN6P” value in data set [6] was found to be 8.74e-05 ± 1.5e-05 s⁻¹. Also, the “self-cleavage kobs at 640 uM GlcN6P” value in data set [3] was 0.00017 ± 2.3e-05 s⁻¹. In data set [4], the “self-cleavage kobs at 2500 uM GlcN6P” value was 0.000443 ± 6.8e-05 s⁻¹. In data set [5], the “self-cleavage kobs at 10000 uM GlcN6P” value was 0.000619 ± 0.00013 s⁻¹.

For G32A U54A C67G, in data set [1], the kcat came out at 0.000168 ± 2.5e-05 s⁻¹. For the same variant, the KM in data set [2] worked out at 216 ± 100 µM. Besides, the “self-cleavage kobs at 160 uM GlcN6P” value in data set [6] was determined as 8.09e-05 ± 1.6e-05 s⁻¹. Besides, the “self-cleavage kobs at 2500 uM GlcN6P” value in data set [4] came to 0.000137 ± 2.7e-05 s⁻¹. Moreover, the “self-cleavage kobs at 10000 uM GlcN6P” value in data set [5] came out at 0.00018 ± 3.3e-05 s⁻¹.

For the variant A15U G29U, the kcat in data set [1] was 0.00358 ± 0.0016 s⁻¹. The “self-cleavage kobs at 40 uM GlcN6P” value in data set [7] was 0.000116 ± 1.1e-05 s⁻¹. Moreover, in data set [6], the “self-cleavage kobs at 160 uM GlcN6P” value was found to be 0.000217 ± 7.1e-05 s⁻¹. Further, the “self-cleavage kobs at 2500 uM GlcN6P” value in data set [4] amounted to 0.0014 ± 0.00028 s⁻¹. Besides, the “self-cleavage kobs at 10000 uM GlcN6P” value in data set [5] is 0.00431 ± 0.00044 s⁻¹.

Regarding A48U C67A, the kcat in data set [1] is 0.000213 ± 8.2e-05 s⁻¹. In addition, the “self-cleavage kobs at 640 uM GlcN6P” value in data set [3] was 0.00012 ± 1.5e-05 s⁻¹. Besides, in data set [4], the “self-cleavage kobs at 2500 uM GlcN6P” value was found to be 0.000105 ± 2.4e-05 s⁻¹. Moreover, the “self-cleavage kobs at 10000 uM GlcN6P” value in data set [5] was determined as 0.000298 ± 4.3e-05 s⁻¹.

Regarding U31G A39C, the kcat in data set [1] was 0.00339 ± 0.0008 s⁻¹. The KM in data set [2] was 3130 ± 1100 µM. Further, the “self-cleavage kobs at 160 uM GlcN6P” value in data set [6] worked out at 0.000147 ± 3.4e-05 s⁻¹. Moreover, the “self-cleavage kobs at 640 uM GlcN6P” value in data set [3] was determined as 0.000584 ± 0.00012 s⁻¹. In data set [4], the “self-cleavage kobs at 2500 uM GlcN6P” value came to 0.00195 ± 0.00036 s⁻¹. Moreover, in data set [5], the “self-cleavage kobs at 10000 uM GlcN6P” value stood at 0.00236 ± 0.00045 s⁻¹.

C11A U31C: the kcat in data set [1] came to 7.57e-05 ± 7.2e-06 s⁻¹. The KM in data set [2] was found to be 1620 ± 610 µM. The “self-cleavage kobs at 2500 uM GlcN6P” value in data set [4] worked out at 5.09e-05 ± 1.4e-05 s⁻¹. The “self-cleavage kobs at 10000 uM GlcN6P” value in data set [5] was determined as 6.39e-05 ± 1.1e-05 s⁻¹.

G13C A39G: the kcat in data set [1] turned out to be 0.000183 ± 2.5e-05 s⁻¹. For the same variant, the KM in data set [2] worked out at 4230 ± 1300 µM. Moreover, the “self-cleavage kobs at 2500 uM GlcN6P” value in data set [4] was 7.1e-05 ± 1.4e-05 s⁻¹. Moreover, the “self-cleavage kobs at 10000 uM GlcN6P” value in data set [5] amounted to 0.000128 ± 2e-05 s⁻¹.

In the case of A15U A53C, in data set [1], the kcat was found to be 0.000734 ± 0.00026 s⁻¹. Further, the “self-cleavage kobs at 160 uM GlcN6P” value in data set [6] was 0.00014 ± 4.7e-05 s⁻¹. In data set [3], the “self-cleavage kobs at 640 uM GlcN6P” value was found to be 0.000643 ± 0.00016 s⁻¹. In addition, in data set [5], the “self-cleavage kobs at 10000 uM GlcN6P” value amounted to 0.000636 ± 0.00012 s⁻¹.

Regarding A39C U57A, in data set [1], the kcat was found to be 2.13e-05 ± 6e-06 s⁻¹. In addition, the “self-cleavage kobs at 40 uM GlcN6P” value in data set [7] was under 1e-05 s⁻¹. The “self-cleavage kobs at 2500 uM GlcN6P” value in data set [4] amounted to 2.6e-05 ± 1.3e-05 s⁻¹.

In the case of G13A U69A, the kcat in data set [1] was 4.03e-05 ± 1.6e-05 s⁻¹. For the same variant, the “self-cleavage kobs at 2500 uM GlcN6P” value in data set [4] turned out to be 6.18e-05 ± 1.2e-05 s⁻¹.

A52U C67G C70G: the kcat in data set [1] came out at 2.5e-05 ± 7.5e-06 s⁻¹.

Turning to G32U G51A, the kcat in data set [1] is under 1e-05 s⁻¹. Further, the “self-cleavage kobs at 40 uM GlcN6P” value in data set [7] was under 1e-05 s⁻¹.

For A39C C71U, the kcat in data set [1] came to 0.00106 ± 0.00018 s⁻¹. Moreover, the KM in data set [2] came to 1570 ± 470 µM. Also, the “self-cleavage kobs at 40 uM GlcN6P” value in data set [7] turned out to be 4.78e-05 ± 7.5e-06 s⁻¹. Further, the “self-cleavage kobs at 160 uM GlcN6P” value in data set [6] is 9.02e-05 ± 1.2e-05 s⁻¹. For the same variant, the “self-cleavage kobs at 640 uM GlcN6P” value in data set [3] was found to be 0.000275 ± 3.1e-05 s⁻¹. In addition, in data set [4], the “self-cleavage kobs at 2500 uM GlcN6P” value turned out to be 0.000738 ± 8.5e-05 s⁻¹. In data set [5], the “self-cleavage kobs at 10000 uM GlcN6P” value amounted to 0.000904 ± 7.4e-05 s⁻¹.

Consider C50G G62U U69G, for which the kcat in data set [1] was 8.66e-05 ± 2.1e-05 s⁻¹. The “self-cleavage kobs at 40 uM GlcN6P” value in data set [7] was 3.4e-05 ± 1.2e-05 s⁻¹. Further, the “self-cleavage kobs at 160 uM GlcN6P” value in data set [6] came to 0.000155 ± 4.5e-05 s⁻¹. Further, in data set [3], the “self-cleavage kobs at 640 uM GlcN6P” value was 7.83e-05 ± 2.3e-05 s⁻¹. Also, the “self-cleavage kobs at 2500 uM GlcN6P” value in data set [4] stood at 0.000155 ± 4.7e-05 s⁻¹. Also, the “self-cleavage kobs at 10000 uM GlcN6P” value in data set [5] was determined as 7.41e-05 ± 1.6e-05 s⁻¹.

For the variant U31C A52U U65A, the turnover number (kcat) in data set [1] was under 1e-05 s⁻¹.

Turning to A14U U49G, the kcat in data set [1] is 0.000127 ± 2.5e-06 s⁻¹. For the same variant, the KM in data set [2] turned out to be 3130 ± 200 µM. Moreover, in data set [3], the “self-cleavage kobs at 640 uM GlcN6P” value came out at 2.09e-05 ± 1e-05 s⁻¹. Further, the “self-cleavage kobs at 2500 uM GlcN6P” value in data set [4] is 5.86e-05 ± 2.3e-05 s⁻¹. The “self-cleavage kobs at 10000 uM GlcN6P” value in data set [5] is 9.65e-05 ± 9.5e-06 s⁻¹.
